Measurements taken from patent US20230192845A1 (BLINK BIOMEDICAL, published 2023).
Residue numbers refer to the chain shown, from its start. Numbers in names are those of the source.

T1: human CD96 short isoform v2 expressed on CHO cells (human, UniProt P40200 22-585)
T1 construct: also called hCD96v2; CD96v2; not shown: C-terminal HA-tag
T1 sequence: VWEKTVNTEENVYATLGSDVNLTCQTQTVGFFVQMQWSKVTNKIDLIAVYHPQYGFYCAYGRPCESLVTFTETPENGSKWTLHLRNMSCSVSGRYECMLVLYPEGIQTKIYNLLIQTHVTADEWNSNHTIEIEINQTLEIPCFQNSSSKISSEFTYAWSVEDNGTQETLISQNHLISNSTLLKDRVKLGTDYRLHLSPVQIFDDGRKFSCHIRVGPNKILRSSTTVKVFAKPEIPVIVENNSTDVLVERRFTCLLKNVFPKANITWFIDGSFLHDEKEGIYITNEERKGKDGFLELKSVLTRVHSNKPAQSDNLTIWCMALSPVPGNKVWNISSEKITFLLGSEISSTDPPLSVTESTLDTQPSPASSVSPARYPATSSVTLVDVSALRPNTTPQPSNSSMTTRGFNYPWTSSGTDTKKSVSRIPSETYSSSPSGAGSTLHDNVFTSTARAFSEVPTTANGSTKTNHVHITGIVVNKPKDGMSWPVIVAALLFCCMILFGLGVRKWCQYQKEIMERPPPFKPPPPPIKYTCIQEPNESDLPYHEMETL

T2: mouse CD96 expressed on CHO cells (mouse, UniProt Q3U0X8 22-602)
T2 construct: whole, on cells; also called mCD96
T2 sequence (looked up): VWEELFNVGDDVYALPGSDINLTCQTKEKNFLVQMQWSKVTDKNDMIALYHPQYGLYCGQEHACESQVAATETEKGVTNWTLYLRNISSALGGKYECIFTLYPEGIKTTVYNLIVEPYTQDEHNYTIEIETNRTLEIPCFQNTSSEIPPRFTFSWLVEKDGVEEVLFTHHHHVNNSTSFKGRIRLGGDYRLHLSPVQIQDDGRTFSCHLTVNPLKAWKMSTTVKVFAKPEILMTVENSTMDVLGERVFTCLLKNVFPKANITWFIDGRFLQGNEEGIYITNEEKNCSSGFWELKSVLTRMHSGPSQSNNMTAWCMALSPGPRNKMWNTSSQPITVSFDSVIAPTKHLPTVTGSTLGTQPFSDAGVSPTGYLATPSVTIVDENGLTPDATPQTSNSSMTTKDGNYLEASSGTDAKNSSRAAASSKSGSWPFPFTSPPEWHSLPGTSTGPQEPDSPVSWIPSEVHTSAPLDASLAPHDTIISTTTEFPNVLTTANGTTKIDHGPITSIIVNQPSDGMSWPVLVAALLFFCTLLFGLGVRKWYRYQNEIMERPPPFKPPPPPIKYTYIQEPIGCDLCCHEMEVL

T3: rhesus CD96 transiently expressed on CHO cells (rhesus, UniProt P40200 22-585 (human entry))
T3 construct: also called rhesus CD96, short isoform
T3 chain: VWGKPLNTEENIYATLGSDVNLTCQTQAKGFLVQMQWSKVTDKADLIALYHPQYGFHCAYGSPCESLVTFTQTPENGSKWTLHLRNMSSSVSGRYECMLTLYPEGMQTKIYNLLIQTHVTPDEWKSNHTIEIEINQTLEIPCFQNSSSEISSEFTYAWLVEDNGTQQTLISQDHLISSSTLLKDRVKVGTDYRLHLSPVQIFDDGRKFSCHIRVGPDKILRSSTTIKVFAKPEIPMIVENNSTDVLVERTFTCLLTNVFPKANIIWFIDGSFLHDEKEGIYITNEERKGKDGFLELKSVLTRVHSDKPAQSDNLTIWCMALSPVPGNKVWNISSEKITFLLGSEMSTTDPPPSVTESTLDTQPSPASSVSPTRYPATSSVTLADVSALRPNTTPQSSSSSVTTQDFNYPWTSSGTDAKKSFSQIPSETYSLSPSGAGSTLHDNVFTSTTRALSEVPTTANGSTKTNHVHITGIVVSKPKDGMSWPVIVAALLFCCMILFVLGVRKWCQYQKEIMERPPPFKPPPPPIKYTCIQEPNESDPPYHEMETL

B1: BL006-9-15G1-15K5 (antibody, V domains shown)
VH: QAYLQQSGAELVRPGASVKMSCKASGYTFTSYNMHWVKQTPRQGLEWIGAVIPGNGDSFYNQKFKGKATLTVDKSSSTAYMQLSSLTSEDSAVYFCGRSSSGCIAYWGQGTLVTVSA
VL: DIVLTQSPASLAVSLGQRATISCRVSGSVDYDGDSYMNWYQQKPGQPPKLLIYAASNLESGIPARFSGSGSETDFTLNIHPVEEEDAATYYCLQSNEAPWTFGGGTKVEIK
notes: Recombinant mIgG2a/kappa (also made as mIgG2a-D265A); also called candidate NO 12
B2: BL006-4-31G1-31K3 (antibody, V domains shown)
VH: QVQLQQSGPELVKPGASVKISCKTSGFTFTDYYINWVKQRPGQGLEWIGWIFPGSGSSFYSEIFKGQATLTVDKSSSTAYMLLSSLTSEDSAVYFCARRNYYGYGAYAMDYWGQGTSVTVSS
VL: DIQMNQSPSSLSASLGDTITITCRASQSINFWLSWYQQKPGNIPKLLIYKASNLHTGVPSRFSGSGSGTDFTLTISSLQPEDIATYYCLQGQSYPLTFGGGTKLEIK
notes: Recombinant mIgG2a/kappa (also made as mIgG2a-D265A); also called candidate NO 10
B3: BL006-4-20G5-20K5 (antibody, V domains shown)
VH: EVQLAESGGDLVTPGGSLKLSCAASGFTFSSYGMSWVRQTPDKRLEWVATITHGGSYIYYPDSVKGRFTLSRDNAKNTLYLQMSSLKSEDTAMYYCIRHADYARFAYWGQGTLVTVSA
VL: DIQMTQTTSSLSASLGDRVTISCRPSQDISNYLNWYQQKPDGTVKLLIYYTSRLHSGVPSRFSGSGSGTDYSLTISNLEQEDIATYFCQQGNTLPWTFGGGTKLEIK
notes: Recombinant mIgG2a/kappa (also made as mIgG2a-D265A); also called BL006-4-20G5-20K5 #1; candidate NO 1
B4: BL006-19-134G5-134K4 (antibody, V domains shown)
VH: QVQLQQPGAELVKPGASVKLSCKASDYTFTTYWMHWVKQRPGQGLEWIGMIHPNSDTTLYNEKFRSQATLTVDKSSSTAYIQLSRLTSEDSAVYYCVVTGTNFDYWGQGTTLAVSS
VL: QVVLTQSPAIMSASPGEKVTMTCSATSSVSYMYWYQQKPGSSPKPWIYRTSNLASGVPVRFSGSGSGTSYSLTISSMEAEDAATYYCQQWSSNPLTFGGGTKLELK
notes: Recombinant mIgG2a/kappa (also made as mIgG2a-D265A); also called BL006-19-134G5-134K4 #2; candidate NO 7
B5: BL006-19-363G1-363K1 (antibody, V domains shown)
VH: B4 VH with D26G, M34I, H52L, D56G, L59I, T78A, I81M, V97A, A113T
VL: B4 VL with V2I, T26S, S66F, S76N, G99T
notes: Recombinant mIgG2a/kappa (also made as mIgG2a-D265A); also called candidate NO 18
B6: BL006-19-370G9-370K16 (antibody, V domains shown)
VH: QVQLQQSGAELGRPGTSVKMSCKAAGYTFTNYWIGWVKQRPGHGLEWIGDIYPGGGYTNYNEKFKGKATLTADTSSSTAYIQLSSLTSEDSAIYYCARSGYYDGSPLAMDYWGQGTSVTVS
VL: QIVLTQSPTIMSASPGEKVTMTCSASSSVSYMHWYQQKSGTSPKRWIYDTSKLASGVPARFSGSGSGTSYSLTISSMEAEDAATYYCQQWSSNPPTFGSGTKLEIK
notes: Recombinant mIgG2a/kappa (also made as mIgG2a-D265A); also called candidate NO 19
B7: BL006-19-352G9-352K8 (antibody, V domains shown)
VH: QVQLQQPGAELVKPGASVKLSCKASGYTFTSYWMHWVKQRPGQGLEWIGMIHPNGDITDYNEKFKSKATLAVDESSSTAFMQLNSLTSEDSAFYYCARASYYGSLYWGQGTTLTVSS
VL: DIVMTQSQKFMSTSVGDRVSVTCKASQNVGIAVAWYQKKPGQSPKTLIYSASTRYTGVPDRFTGSGSGTDFTLTINDVQSEDLADYFCQQYGSSPLTFGAGTKLELK
notes: Recombinant mIgG2a/kappa (also made as mIgG2a-D265A); also called candidate NO 17

target: T1, human CD96 short isoform v2 expressed …; test: FCM, inhibition of hCD155-Fc binding to hCD96v2-CHO cells
Description: All candidates except BL006-2-19 that bound very weakly on hCD96v2 by FCM were tested for their capacity to inhibit the binding of human CD155 to hCD96v2 stably expressed on CHO cells. Human CD96-transfected CHO cells (3×10⁵ cells/well of 96-well plate) were incubated at +4° C. for 30 minutes with serial dilutions of anti-CD96 antibodies or isotype control antibody (in mIgG2a or mIgG2aD265A format) in the presence of 4 μg/mL of biotinylated hCD155-Fc (produced and biotinylated at BliNK).
% inhibition=(1−(MFI_wAb&CD155−MFI_CHO)/(MFI_wCD155−MFI_CHO))×100, where MFI_wAb&CD155 is the Mean Intensity Fluorescence (MFI) obtained with the hCD96-CHO cells incubated with the tested antibody and hCD155-hFc; MFI_CHO is the MFI obtained in the absence of hCD155 and mAbs; and MFI_wCD155 is the fluorescence with hCD155 but without pre-incubation with antibody (0% CD155 binding inhibition). The % of inhibition was plotted against antibody concentration and the IC50 values were calculated by using a nonlinear regression analysis model of the GraphPad Prism software.

Binder	Maximal Inhibition Capacity (%)	IC50 [nM]
B1	< 5	–
B2	100	16.8

target: T2, mouse CD96 expressed on CHO cells; test: FCM on CHO cells expressing mouse CD96
Excerpt: (§1) The capacity of the identified mouse anti-human CD96 antibodies to recognize the CD96 protein from other species was further analyzed by flow cytometry by using CHO cells expressing the mouse or the rhesus CD96. The expression of the species-specific CD96 on CHO cell surface was confirmed by using staining with appropriate anti-CD96 antibodies and flow cytometry on non-fixed cells. The rat anti-mCD96 antibody clone #630612 (R&D Systems) and the candidate BL006-9-1 (positive by ELISA on rhesus CD96) were used to confirm the expression of rhesus CD96, while the clone 6A6 (rat IgG2a, e-Bioscience) was used to verify the expression of mouse CD96.
(§2) Mouse anti-CD96 antibodies and isotype control antibodies were incubated at 10 or 1 μg/mL with CHO cells expressing different CD96 species at +4° C. for 30 minutes.

Binder	binding result
B3	no binding (tested: 1 and 10 µg/mL)
B2	no binding (tested: 1 and 10 µg/mL)
B4	no binding (tested: 1 and 10 µg/mL)
B5	no binding (tested: 1 and 10 µg/mL)
B6	no binding (tested: 1 and 10 µg/mL)
B7	no binding (tested: 1 and 10 µg/mL)

target: T1, human CD96 short isoform v2 expressed …; test: FCM on hCD96v2-CHO cells
Description: FIG. 6: Binding profiles of anti-hCD96 antibodies on human CD96-transfected CHO cells (hCD96v2, short isoform). CHO cells expressing hCD96v2 were incubated with serial dilution of the indicated mIgG1 or mIgG2a anti-CD96 or isotype control antibodies. […] The results are expressed as the difference of mean fluorescence intensity (delta MFI) between cells stained with antibodies and cells without antibodies. Dose response curves were obtained from GraphPad prism software using a non-linear regression fit with a variable slope model (4 parameters). To simplify the reading, results from the various anti-hCD96 candidates are shown on 4 different panels.
The capacity of the identified mouse anti-CD96 antibodies to recognize the cell membrane expressed human CD96 was further analyzed by flow cytometry (FCM) by using CHO cells stably transfected with the CD96 short isoform v2 (CD96v2; Genbank accession number NM_005816, flanked in C-terminus with HA-tag) (SEQ ID NO: 268).
Mouse anti-CD96 antibodies and isotype control antibodies were incubated at various concentrations from 10 μg/mL to 4.6 ng/mL with CHO cells expressing human CD96 at +4° C. for 30 minutes. […] The differences between the mean fluorescence intensity (MFI) obtained for each of the antibody concentration and the intensity obtained in absence of primary antibody (delta-MFI), were calculated and plotted against the concentrations of antibodies.

Binder	EC50 [nM]	Maximum binding (delta MFI)
B1	14.3	42000
B2	4.82	723000

Target: T3, rhesus CD96 transiently expressed on …
Test: flow cytometry on CHO cells transiently expressing rhesus CD96; antibody at 1 (thin line) and 10 µg/ml (thick dashed line), filled grey = isotype control
Description: FIG. 7: Binding profiles of anti-CD96 antibodies on CHO cells transfected with rhesus CD96. Anti-CD96 antibodies or the corresponding isotype control mAbs were tested for their capacity to recognize rhesus CD96 transiently expressed on CHO cells by flow cytometry. Each histogram represents the overlay of the fluorescence intensity obtained for each antibody tested at 1 (black line) and 10 μg/ml (thick dashed black line) and compared to the fluorescence obtained with an isotypic control (filled grey histogram).
as §1, §2

Binder	binding result
B3	no binding (tested: 10 µg/ml)
B2	binds
B4	no binding (tested: 10 µg/ml)
B5	no binding (tested: 10 µg/ml)
B6	no binding (tested: 10 µg/ml)
B7	binds
